Experimental data as given in patent US10308606B2, “PSMA-targeted NIR dyes and their uses” (On Target Laboratories, LLC, priority 2016, dated 2019).

Tests used:
PSMA = target: T1, PSMA (Homo sapiens, UniProt Q04609); test: In vitro binding: relative binding affinity versus DUPA-FITC on PSMA-positive 22Rv1 cells; conditions: 1 h at 37° C., 100 nM DUPA-FITC, FIG. 2, read-out: dissociation constant (KD)
T1 construct: PSMA-positive 22Rv1 human prostate cancer cells; endogenous in cells; host or cells: 22Rv1 human prostate cancer cells
Experimental: FIG. 2 illustrates the relative binding affinity of 1: OTL78 with respect to DUPA-FITC (14). PSMA-positive 22Rv1 human prostate cancer cells were incubated for 1 h at 37° C. in the presence of 100 nM DUPA-FITC with increasing concentrations of 1. Media was then removed, washed with fresh media three times, and replaced with PBS. Cell bound fluorescence was assayed as using flow cytometry.
General Methods: 22Rv1 cells (a human prostate cancer cells) were grown as a monolayer using RPMI medium (Gibco, NY) 10% heat-inactivated fetal bovine serum (Atlanta Biological, GA) and 1% penicillin streptomycin (Gibco, NY) in a 5% carbon dioxide: 95% air-humidified atmosphere at 37° C. for at least six passages before they were used for the assays.
In vitro binding and specificity: 22Rv1 cells were seeded into a T75 flask and allowed to form a monolayer over 24 h. After trypsin digestion, release cells were transferred into centrifuge tubes (1×10^6 cells/tube) and centrifuged. […] After rinsing with fresh medium (2×1.0 mL) and PBS (1×1.0 mL), cells were resuspended in PBS (1.0 mL) and cell bound fluorescence was analyzed (100,000 cells/sample) using a fluorometer (Cary, Agilent). The relative binding affinities were calculated using a plot of % cell bound fluorescence versus the log concentration of the test article using GraphPad Prism 4.

[1] = tested on: 22Rv1 human prostate tumor xenograft; test: Time dependent whole body imaging; format: in vivo, mouse; conditions: 10 nmol, FIG. 6
Experimental: FIGS. 6A-6F: Overlay of whole body or half body fluorescence image over white light images after adjusting the threshold. 22Rv1 human prostate tumor xenograft bearing mouse was injected with 10 nmol of 1: OTL78 and imaged with IVIS imager (ex=745 nm, em=ICG, exposure time=1 s) at different time intervals.
Settings for imaging:—lamp level: medium; excitation: 745 nm; emission: ICG(830 nm); epi illumination; binning: 4 (M), FOV=12.5; f-stop=2; acquisition time=1 s. For time dependent studies, animals were imaged under anesthesia using isoflurane. Whole body imaging (intact tumor) experiments was then performed using a Caliper IVIS Lumina II Imaging Station with Living Image 4.0 software (PerkinElmer Inc, MA).

T1 sequence (Q04609 whole entry): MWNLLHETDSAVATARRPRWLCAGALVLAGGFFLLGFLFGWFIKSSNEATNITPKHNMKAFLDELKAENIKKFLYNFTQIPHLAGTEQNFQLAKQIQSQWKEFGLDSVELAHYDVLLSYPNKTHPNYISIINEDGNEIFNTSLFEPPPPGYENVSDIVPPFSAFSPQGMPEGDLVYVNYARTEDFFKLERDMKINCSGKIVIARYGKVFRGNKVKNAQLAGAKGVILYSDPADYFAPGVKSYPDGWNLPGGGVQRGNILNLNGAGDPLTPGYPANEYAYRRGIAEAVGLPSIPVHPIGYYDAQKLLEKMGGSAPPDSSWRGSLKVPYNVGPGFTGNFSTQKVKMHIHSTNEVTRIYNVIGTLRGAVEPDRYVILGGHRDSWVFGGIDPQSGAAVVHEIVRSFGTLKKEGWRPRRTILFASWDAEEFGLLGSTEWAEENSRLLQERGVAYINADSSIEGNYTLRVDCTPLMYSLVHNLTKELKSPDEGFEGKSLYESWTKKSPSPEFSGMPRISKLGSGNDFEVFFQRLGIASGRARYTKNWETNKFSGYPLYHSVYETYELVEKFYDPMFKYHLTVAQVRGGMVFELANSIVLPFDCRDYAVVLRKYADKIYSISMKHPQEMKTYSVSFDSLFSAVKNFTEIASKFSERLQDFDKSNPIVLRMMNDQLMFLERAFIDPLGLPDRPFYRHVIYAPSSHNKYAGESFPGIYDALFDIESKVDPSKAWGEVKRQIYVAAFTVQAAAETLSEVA

Row | Compound | Kd (PSMA) [nM] | time remained in the tumor [1] | time to saturation in PSMA-positive tumors [1] [h]
1 | DUPA_PEG2—Phe_Tyr-S0456 [compound 5] | 1 | – | –
2 | CC1(C)C(/C=C/C2=C(Oc3ccc(C[C@H](NC(=O)[C@H](Cc4ccccc4)NC(=O)CCOCCOCCNC(=O)CC[C@H](NC(=O)N[C@@H](CCC(=O)O)C(=O)O)C(=O)O)C(=O)O)cc3)C(=C/C=C3/N(CCCCS(=O)(=O)O)c4ccc(S(=O)(=O)O)cc4C3(C)C)/CCC2)=[N+](CCCCS(=O)(=O)[O-])c2ccc(S(=O)(=O)O)cc21 [1: OTL78, DUPA_PEG2_Phe_Tyr-50456] | – | over 24 h | ≤ 2
